Experimental data published in US20120252742A1.

What was measured:
[1] = target: SIY peptide on H-2Kb (mouse); assay: value stated in the legend of FIG. 16; method not given
[2] = target: SIY peptide on H-2Kb (mouse); assay: value cited from Chervin et al. 2009 (ref 18); method not given
[3] = target: SL9 (HIV-Gag)/HLA.A2 streptavidin:phycoerythrin tetramer (human immunodeficiency virus; human); assay: cell-based or functional assay
[4] = target: SL9 peptide on HLA.A2 of peptide-loaded HLA.A2+ cells (T2) (human immunodeficiency virus; human); assay: flow cytometry: T2 cells loaded with 10 uM SL9, biotinylated scTCR, streptavidin:PE
[5] = target: SL9 peptide on HLA.A2 of peptide-loaded HLA.A2+ cells (T2) (human immunodeficiency virus; human); assay: flow cytometry: T2 cells loaded with 10 uM SL9, titration of biotinylated scTCR, streptavidin:PE
[6] = target: SL9 peptide on HLA.A2 of peptide-loaded HLA.A2+ cells (T2) (human immunodeficiency virus; human); assay: flow cytometry: SL9 peptide titrated on T2 cells, 100 nM biotinylated scTCR; the reference value is from the literature
[7] = target: SIY peptide on H-2Kb (mouse); assay: IL-2 release; transduced 58-/- cells, SIY peptide on T2-K^b (FIG. 17); fusion: CD28, CD3ζ, LCK
[8] = target: SIY peptide on K^b of antigen presenting cells (T2-K^b); assay: cell-based or functional assay
[9] = target: human immunodeficiency virus (HIV) Gag protein (SL9) peptide on HLA-A*02:01 (human); assay: SL9 peptide titrated on T2 cells, stained with 100 nM multi-biotinylated scTCR (FIG. 11C); soluble, other

2C (full-length αβ TCR)
Kd [1]: 30 µM

m33 (full-length αβ TCR)
Kd [1]: 0.03 µM
Kd [2]: 0.016 µM

868-Z11 scTCR (Vβ-linker-Vα) fused to CD28, CD3ζ, LCK, on the surface of transduced T cells
T cell activation by plate-bound pepMHC tetramer, EC50 [3]: 0.004 µM

soluble, biotinylated 868-Z11 single-chain TCR expressed in E. coli (pET28a) and refolded
lowest scTCR concentration at which peptide loaded cells were detected [4]: 0.1 nM
EC50 [5]: 0.004 µM
fold improvement in limit of detection relative to the full-length 868 TCR variant described by Varela-Rohena et al [6]: 5 fold

m33 scTCR with 2C-T7 stabilizing mutations
lowest activating peptide concentration [7]: 1 nM

m33 scTCR (Vα-linker-Vβ) fused to CD28, CD3ζ, LCK, on the surface of 58-/- T cell hybridoma
IL-2 release, lowest SIY peptide concentration that activates [8]: 1 nM

868-Z11
lowest SL9 peptide concentration detected [9]: 10 nM
